From patent US20110263454A1, “Methods of Identifying Functional Characteristics of Promoters, Transcription Modifying Proteins and Transcription Modulating Agents” (Salk Institute for Biological Studies, priority 2008, published 2011)

B1: PPARd: Peroxisome proliferator activated receptor δ (NR1C2), cDNA driver (protein, UniProt Q03181 1-441, looked up)
Peroxisome …: MEQPQEEAPEVREEEEKEEVAEAEGAPELNGGPQHALPSSSYTDLSRSSSPPSLLDQLQMGCDGASCGSLNMECRVCGDKASGFHYGVHACEGCKGFFRRTIRMKLEYEKCERSCKIQKKNRNKCQYCRFQKCLALGMSHNAIRFGRMPEAEKRKLVAGLTANEGSQYNPQVADLKAFSKHIYNAYLKNFNMTKKKARSILTGKASHTAPFVIHDIETLWQAEKGLVWKQLVNGLPPYKEISVHVFYRCQCTTVETVRELTEFAKSIPSFSSLFLNDQVTLLKYGVHEAIFAMLASIVNKDGLLVANGSGFVTREFLRSLRKPFSDIIEPKFEFAVKFNALELDDSDLALFIAAIILCGDRPGLMNVPRVEAIQDTILRALEFHLQANHPDAQYLFPKLLQKMADLRQLVTEHAQMMQRIKKTETETSLHPLLQEIYKDMY
B2: FXR: Farnesoid X Receptor (NR1H4), cDNA driver (protein, UniProt Q96RI1 1-486, looked up)
Bile acid receptor: MVMQFQGLENPIQISPHCSCTPSGFFMEMMSMKPAKGVLTEQVAGPLGQNLEVEPYSQYSNVQFPQVQPQISSSSYYSNLGFYPQQPEEWYSPGIYELRRMPAETLYQGETEVAEMPVTKKPRMGASAGRIKGDELCVVCGDRASGYHYNALTCEGCKGFFRRSITKNAVYKCKNGGNCVMDMYMRRKCQECRLRKCKEMGMLAECMYTGLLTEIQCKSKRLRKNVKQHADQTVNEDSEGRDLRQVTSTTKSCREKTELTPDQQTLLHFIMDSYNKQRMPQEITNKILKEEFSAEENFLILTEMATNHVQVLVEFTKKLPGFQTLDHEDQIALLKGSAVEAMFLRSAEIFNKKLPSGHSDLLEERIRNSGISDEYITPMFSFYKSIGELKMTQEEYALLTAIVILSPDRQYIKDREAVEKLQEPLLDVLQKLCKIHQPENPQHFACLLGRLTELRTFNHHHAEMLMSWRVNDHKFTPLLCEIWDVQ
B3: RARg: Retinoic acid receptor γ (NR1B3), nuclear hormone receptor cDNA driver (protein, UniProt P13631 1-454, looked up)
Retinoic acid receptor gamma: MATNKERLFAAGALGPGSGYPGAGFPFAFPGALRGSPPFEMLSPSFRGLGQPDLPKEMASLSVETQSTSSEEMVPSSPSPPPPPRVYKPCFVCNDKSSGYHYGVSSCEGCKGFFRRSIQKNMVYTCHRDKNCIINKVTRNRCQYCRLQKCFEVGMSKEAVRNDRNKKKKEVKEEGSPDSYELSPQLEELITKVSKAHQETFPSLCQLGKYTTNSSADHRVQLDLGLWDKFSELATKCIIKIVEFAKRLPGFTGLSIADQITLLKAACLDILMLRICTRYTPEQDTMTFSDGLTLNRTQMHNAGFGPLTDLVFAFAGQLLPLEMDDTETGLLSAICLICGDRMDLEEPEKVDKLQEPLLEALRLYARRRRPSQPYMFPRMLMKITDLRGISTKGAERAITLKMEIPGPMPPLIREMLENPEMFEDDSSQPGPHPNASSEDEVPGGQGKGGLKSPA
B4: RARa: Retinoic acid receptor α (NR1B1), nuclear hormone receptor cDNA driver (protein, UniProt P10276 1-462, looked up)
Retinoic acid receptor alpha: MASNSSSCPTPGGGHLNGYPVPPYAFFFPPMLGGLSPPGALTTLQHQLPVSGYSTPSPATIETQSSSSEEIVPSPPSPPPLPRIYKPCFVCQDKSSGYHYGVSACEGCKGFFRRSIQKNMVYTCHRDKNCIINKVTRNRCQYCRLQKCFEVGMSKESVRNDRNKKKKEVPKPECSESYTLTPEVGELIEKVRKAHQETFPALCQLGKYTTNNSSEQRVSLDIDLWDKFSELSTKCIIKTVEFAKQLPGFTTLTIADQITLLKAACLDILILRICTRYTPEQDTMTFSDGLTLNRTQMHNAGFGPLTDLVFAFANQLLPLEMDDAETGLLSAICLICGDRQDLEQPDRVDMLQEPLLEALKVYVRKRRPSRPHMFPKMLMKITDLRSISAKGAERVITLKMEIPGSMPPLIQEMLENSEGLDTLSGQPGGGGRDGGGLAPPPGSCSPSLSPSSNRSSPATHSP
B5: RARb: Retinoic acid receptor β (NR1B2), nuclear hormone receptor cDNA driver (protein, UniProt P10826 1-455, looked up)
Retinoic acid receptor beta: MTTSGHACPVPAVNGHMTHYPATPYPLLFPPVIGGLSLPPLHGLHGHPPPSGCSTPSPATIETQSTSSEELVPSPPSPLPPPRVYKPCFVCQDKSSGYHYGVSACEGCKGFFRRSIQKNMIYTCHRDKNCVINKVTRNRCQYCRLQKCFEVGMSKESVRNDRNKKKKETSKQECTESYEMTAELDDLTEKIRKAHQETFPSLCQLGKYTTNSSADHRVRLDLGLWDKFSELATKCIIKIVEFAKRLPGFTGLTIADQITLLKAACLDILILRICTRYTPEQDTMTFSDGLTLNRTQMHNAGFGPLTDLVFTFANQLLPLEMDDTETGLLSAICLICGDRQDLEEPTKVDKLQEPLLEALKIYIRKRRPSKPHMFPKILMKITDLRSISAKGAERVITLKMEIPGSMPPLIQEMLENSEGHEPLTPSSSGNTAEHSPSISPSSVENSGVSQSPLVQ

Experiments:
hG6PD promoter = experiment: NHR-promoter luciferase screen, hG6PD promoter; format: cell-based, human; details: for Luc. act., normalized to lacZ / Normalized Luc. act., normalized to control: G6PD promoter reporter, co-transfected HR, without or with its ligand; for Normalized Luc. act., normalized to control: relative to control; for luciferase activity normalized to lacZ activity and to a control, hG6PD: hG6PD promoter-luciferase, CV-1 cells, NHR +/- ligand, control = 1.00
How it was run: (§1)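 CV-1 cells were co-transfected with 50 ng NHR (homodimer or NHR/RXR heterodimer), 100 ng promoter-luciferase construct and 50 ng LacZ. Luciferase was normalized to LacZ and to a no-NHR/no-ligand control.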

mUCP1 promoter = experiment: NHR-promoter luciferase screen, mUCP1 promoter; format: cell-based, mouse; details: for Luc. act., normalized to lacZ / Normalized Luc. act., normalized to control: mUCP1 promoter reporter, co-transfected HR, with or without its ligand; for Normalized Luc. act., normalized to control: relative to control; for luciferase activity normalized to lacZ activity and to a control, mUCP!: mUCP! promoter-luciferase, CV-1 cells, NHR +/- ligand, control = 1.00
How it was run: as §1

mGhrelin promoter = experiment: NHR-promoter luciferase screen, mGhrelin promoter; format: cell-based, mouse; details: for Luc. act., normalized to lacZ / Normalized Luc. act., normalized to control: Table 8, mGhrelin; for Results of assays of transcription factor (+/- ligand) with mGhrelin: Table 6d, luciferase activity relative to control (control = 1.00)
How it was run: as §1

MCP-1 promoter = experiment: NHR-promoter luciferase screen, MCP-1 promoter; format: cell-based; details: for Normalized Luc. act., normalized to control / Luc. act., normalized to lacZ: MCP-1 promoter reporter; for Normalized Luc. act., normalized to control: HR without or with its ligand, relative to control; for Luc. act., normalized to lacZ: hormone receptor (HR) without or with its ligand; for mMCP-1 promoter reporter activity: transcription factor +/- ligand, control = 1.00
How it was run: as §1

hIFNg promoter = experiment: NHR-promoter luciferase screen, hIFNg promoter; format: cell-based, human; details: for Luc. act., normalized to lacZ / Normalized Luc. act., normalized to control: IFNg promoter, HR component without or with ligand; for hIFNg promoter reporter activity: transcription factor +/- ligand, control = 1.00
How it was run: as §1

hPPARg2 promoter = experiment: NHR-promoter luciferase screen, hPPARg2 promoter; format: cell-based, human; details: for Luc. act., normalized to lacZ / Normalized Luc. act., normalized to control: PPARG2 promoter, hormone receptor with or without its ligand; for Normalized Luc. act., normalized to control: relative to control; for Results of assays of transcription factor (+/- ligand) with hPPARg2: Table 6d, luciferase activity relative to control (control = 1.00)
How it was run: as §1

Molecule | Luc. act., normalized to lacZ (hG6PD promoter) | Normalized Luc. act., normalized to control (hG6PD promoter) | luciferase activity normalized to lacZ activity and to a control, hG6PD (hG6PD promoter) | Luc. act., normalized to lacZ (mUCP1 promoter) | Normalized Luc. act., normalized to control (mUCP1 promoter) | luciferase activity normalized to lacZ activity and to a control, mUCP! (mUCP1 promoter) | Luc. act., normalized to lacZ (mGhrelin promoter) | Normalized Luc. act., normalized to control (mGhrelin promoter) | Results of assays of transcription factor (+/- ligand) with mGhrelin (mGhrelin promoter) | Normalized Luc. act., normalized to control (MCP-1 promoter) | Luc. act., normalized to lacZ (MCP-1 promoter) | mMCP-1 promoter reporter activity (MCP-1 promoter) | Luc. act., normalized to lacZ (hIFNg promoter) | Normalized Luc. act., normalized to control (hIFNg promoter) | hIFNg promoter reporter activity (hIFNg promoter) | Luc. act., normalized to lacZ (hPPARg2 promoter) | Normalized Luc. act., normalized to control (hPPARg2 promoter) | Results of assays of transcription factor (+/- ligand) with hPPARg2 (hPPARg2 promoter)
B1 | 48.7 | 1.3 | 1.30 | 3.5 | 0.8 | 0.79 | 56.1 | 1.1 | 1.07 | 1.8 | 190.4 | 1.78 | 19.72 | 1.2 | 1.24 | 2.5 | 1.2 | 1.24
B2 | 42.6 | 1.1 | 1.14 | 4.2 | 1.0 | 0.95 | 65.7 | 1.3 | 1.26 | 1.2 | 124.1 | 1.16 | 17.12 | 1.1 | 1.08 | 1.8 | 0.9 | 0.89
B3 | 58.8 | 1.6 | 1.57 | 5.0 | 1.1 | 1.13 | 88.8 | 1.7 | 1.70 | 1.6 | 167.8 | 1.57 | 22.8 | 1.4 | 1.43 | 3.0 | 1.5 | 1.51
B4 | 57.1 | 1.5 | 1.53 | 2.8 | 0.6 | 0.63 | 67.2 | 1.3 | 1.29 | 1.7 | 182.3 | 1.70 | 22.0 | 1.4 | 1.39 | 3.5 | 1.7 | 1.73
B5 | 56.6 | 1.5 | 1.52 | 4.4 | 1.0 | 1.00 | 84.4 | 1.6 | 1.61 | 1.8 | 197.0 | 1.84 | 24.4 | 1.5 | 1.53 | 3.4 | 1.7 | 1.72
